Test results published in PMC8682754 (Nucleic Acids Research, 2021).
Residue numbers refer to the chain shown, from its start. Like-named read-outs stand apart in the source and are kept apart here.

How the values were obtained:
[1] = target: SegA (Sulfolobus solfataricus); test: SEC
SegA [2] = target: T1, SegA (Saccharolobus solfataricus, UniProt Q981B3); test: X-ray crystal structure; assay type: binding; details: nucleotide pocket
T1 sequence (Q981B3 1-220): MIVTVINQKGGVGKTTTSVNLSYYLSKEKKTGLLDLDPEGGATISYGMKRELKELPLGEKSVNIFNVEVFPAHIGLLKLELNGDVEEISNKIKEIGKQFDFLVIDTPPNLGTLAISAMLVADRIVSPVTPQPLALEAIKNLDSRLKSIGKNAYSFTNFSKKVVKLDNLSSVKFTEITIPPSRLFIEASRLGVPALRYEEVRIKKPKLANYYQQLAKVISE

[3] = target: SegA (Sulfolobus solfataricus)
[4] = target: SegB (Sulfolobus solfataricus); test: SEC
SegBΔ33 [5] = target: T2, SegBΔ33 (Sulfolobus solfataricus, UniProt Q981B2 34-109, del1-33); test: crystal structure
T2 sequence: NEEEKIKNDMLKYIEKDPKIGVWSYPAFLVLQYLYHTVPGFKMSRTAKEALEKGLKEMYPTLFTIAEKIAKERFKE

SegA-G10V = target: T3, SegA-G10V (Sulfolobus solfataricus, UniProt Q981B3 1-220, G10V); test: fluorescence polarization
T3 sequence: T1 sequence (Q981B3 1-220) with G10V

SegA-K14Q = target: T4, SegA-K14Q (Sulfolobus solfataricus, UniProt Q981B3 1-220, K14Q); test: fluorescence polarization
T4 sequence: T1 sequence (Q981B3 1-220) with K14Q

SegB = target: T5, SegB (Sulfolobus solfataricus, UniProt Q981B2 1-109); test: fluorescence polarization
T5 sequence: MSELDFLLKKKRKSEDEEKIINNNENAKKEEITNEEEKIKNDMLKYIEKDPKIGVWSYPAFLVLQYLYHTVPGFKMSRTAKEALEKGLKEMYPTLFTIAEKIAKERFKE

SegBΔ33 [6] = target: T2, SegBΔ33; test: fluorescence polarization
SegA-Q131A/F158A = target: T6, SegA-Q131A/F158A (Sulfolobus solfataricus, UniProt Q981B3 1-220, Q131A;F158A); test: fluorescence polarization
T6 sequence: T1 sequence (Q981B3 1-220) with Q131A, F158A

SegA-Q131A = target: T7, SegA-Q131A (Sulfolobus solfataricus, UniProt Q981B3 1-220, Q131A); test: fluorescence polarization
T7 sequence: T1 sequence (Q981B3 1-220) with Q131A

SegA [7] = target: T8, SegA (Sulfolobus solfataricus, UniProt Q981B3 1-220); test: fluorescence polarization
T8 sequence: T1 sequence (Q981B3 1-220)

SegA [8] = target: T8, SegA; test: fluorescence polarization; remark: listed apart in the source
SegA [9] = target: T8, SegA; test: fluorescence polarization; remark: listed apart in the source

## SegA (enzyme)
[1]
  stoichiometry N: 2

## Nc1ncnc2c1ncn2[C@@H]1O[C@H](COP(=O)(O)OP(=O)(O)NP(=O)(O)O)[C@@H](O)[C@H]1O [AMPPNP, adenosine 5′-(β,γ-imido)triphosphate]
SegA [2]
  X-ray crystal structure: We observed AMPPNP inside the nucleotide binding pocket

## SegB (natural protein)
[3]
  increase of SegA ATPase activity upon addition of both SegB and S1 DNA: 1000 fold
[4]
  stoichiometry N: 2

B1: 21-bp S1 DNA (dsDNA)
DNA 1: ACGTAGAAGAGTCTAGACTGA
DNA 2: CAGTCTAGACTCTTCTACGTA
SegBΔ33 [5]
  binding result: binds

B2: 23-bp S1 DNA (dsDNA)
DNA 1: TACGTAGAAGAGTCTAGACTGAC
DNA 2: TCAGTCTAGACTCTTCTACGTAG
SegA-G10V
  binding result: binds
SegA-K14Q
  binding result: binds
SegB
  Kd: 180 nM
SegBΔ33 [6]
  Kd: 280 nM
SegA-Q131A/F158A
  binding result: no binding
SegA-Q131A
  binding result: no binding

B3: 24-bp nsDNA (dsDNA)
DNA 1: AGGGTGTTCCACGTGAAACAGGGA
DNA 2: TCCCTGTTTCACGTGGAACACCCT
SegA [7]
  Kd: 710 nM
SegA [8]
  Kd: 240 nM
SegA [9]
  Kd: 450 nM
